# Experimental data reported in the supplement of paper PMC6757056.
# ± gives the standard deviation of the averaged measurements.
# B1: library; a variant is named by its letters at N, in order (parent)
# chain: GCUGUCACCGAGAAACUGUGAAGUAUAUCUUAAACCUGGGCACUUAAAAGAUAUAUGGAGUUAGUAGUGCAACCUGCUCGGUCUGAUGAGUCCNNNNNNGGACGAAACAGC
# What was measured:
# [1] = variants of: B1; assay: normalized RNA/DNA level without ligand (relative to sTRSVctl = 100) (log10 (% of sTRSVctl)); HEK293T; ligand: cyclic di-GMP (c-di-GMP-II aptamer); higher = less ribozyme self-cleavage, higher mRNA level; details: reporter: mCherry (pCS4076), ligand present: no
# Outline: (§1)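 For each 6-well well, 4 µg of library plasmid encoding mCherry-linked ribozyme switches, or eGFP-linked ones in some ligand experiments, was transfected into HEK293T. Any ligand was added 1 h before transfection, and RNA was extracted with EDTA 72 h after it, then reverse-transcribed, amplified, barcoded and sequenced. RNA level was obtained by dividing RNA reads by DNA reads, normalizing to a spiked-in non-cleaving sequence or to the top sequences, then scaling and log-transforming. The top set was 25 sequences, scaling was ×100 with log10, and ≥100 DNA reads were required.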
# [2] = variants of: B1; assay: normalized RNA/DNA level with ligand (relative to sTRSVctl = 100) (log10 (% of sTRSVctl)); HEK293T; ligand: cyclic di-GMP (c-di-GMP-II aptamer); ligand concentration (+) RNA-Seq: 1 mM; higher = less ribozyme self-cleavage, higher mRNA level; details: reporter: mCherry (pCS4076), ligand present: yes
# Outline: as §1
Variant,normalized RNA/DNA level without ligand (log10) [1],normalized RNA/DNA level with ligand (log10) [2]
UGAUAA,1.633 ± 0.011,1.8 ± 0.089
GGCCCA,1.8 ± 0.035,1.88 ± 0.082
GGCCCU,1.877 ± 0.012,1.94 ± 0.057
GGCCCC,1.92 ± 0.045,2 ± 0.13
AGAGUU,1.6 ± 0.016,1.8 ± 0.14
AGAGUG,1.72 ± 0.029,1.8 ± 0.09
CGCAUC,1.66 ± 0.037,1.83 ± 0.11
CGCAUU,1.47 ± 0.073,1.61 ± 0.11
UGAUGC,1.754 ± 0.01,1.84 ± 0.09
UGAUGG,1.68 ± 0.081,1.83 ± 0.066
GGCAAU,1.65 ± 0.1,1.75 ± 0.13
GGCAAG,1.55 ± 0.019,1.74 ± 0.15
GGCAAA,1.55 ± 0.074,1.65 ± 0.16
GGCAAC,1.72 ± 0.05,1.82 ± 0.1
AGAUGG,1.55 ± 0.089,1.73 ± 0.082
AGAUGU,1.56 ± 0.036,1.77 ± 0.054
CGAUCA,1.6 ± 0.026,1.74 ± 0.12
CGAUCG,1.8 ± 0.04,1.87 ± 0.1
CGAUCU,1.52 ± 0.053,1.7 ± 0.073
CGAUCC,1.82 ± 0.026,1.9 ± 0.088
UGCACU,1.74 ± 0.021,1.87 ± 0.094
UGCACG,1.801 ± 0.014,1.91 ± 0.14
UGCACA,1.76 ± 0.05,1.89 ± 0.12
UGCACC,1.74 ± 0.036,1.84 ± 0.14

Variant,normalized RNA/DNA level without ligand (log10) [1],normalized RNA/DNA level with ligand (log10) [2]
UGAGUU,1.67 ± 0.017,1.8 ± 0.091
UGCAAG,1.777 ± 0.0085,1.9 ± 0.088
UGCAAC,1.728 ± 0.0076,1.87 ± 0.099
UGCAAA,1.74 ± 0.0094,1.84 ± 0.1
UGAUUG,1.718 ± 0.017,1.88 ± 0.088
UGAUUC,1.71 ± 0.019,1.86 ± 0.08
UGAUUA,1.704 ± 0.011,1.84 ± 0.11
CGCCCA,1.84 ± 0.069,1.91 ± 0.11
CGCCCC,1.818 ± 0.0078,1.9 ± 0.1
CGCCCG,1.756 ± 0.0093,1.87 ± 0.14
CGCCCU,1.777 ± 0.0073,1.87 ± 0.077
UGCCAG,1.7634 ± 0.0015,1.87 ± 0.087
UGCCAC,1.77 ± 0.056,1.88 ± 0.15
UGCCAA,1.689 ± 0.0043,1.83 ± 0.12
UGCCAU,1.694 ± 0.0071,1.81 ± 0.11
AGCAAG,1.51 ± 0.09,1.68 ± 0.079
AGCAAC,1.65 ± 0.032,1.77 ± 0.092
CGCAAG,1.77 ± 0.024,1.86 ± 0.088
CGCAAC,1.62 ± 0.05,1.78 ± 0.12
CGCCAG,1.76 ± 0.075,1.9 ± 0.072
GGCAGG,1.82 ± 0.022,1.83 ± 0.042
GGCAGU,1.76 ± 0.071,1.849 ± 0.0031
GGCAGA,1.637 ± 0.013,1.76 ± 0.1
GGCAGC,1.716 ± 0.013,1.82 ± 0.081

Variant,normalized RNA/DNA level without ligand (log10) [1],normalized RNA/DNA level with ligand (log10) [2]
AGCCCU,1.77 ± 0.047,1.88 ± 0.12
AGCCCC,1.81 ± 0.031,1.92 ± 0.12
AGCCCA,1.84 ± 0.046,1.92 ± 0.11
CGAUAC,1.61 ± 0.033,1.77 ± 0.084
CGAUAG,1.7 ± 0.056,1.87 ± 0.12
GGCAUU,1.66 ± 0.076,1.82 ± 0.021
GGCAUC,1.65 ± 0.023,1.81 ± 0.087
GGCAUA,1.58 ± 0.11,1.72 ± 0.14
GGCAUG,1.68 ± 0.085,1.7 ± 0.081
UGCAGC,1.77 ± 0.031,1.87 ± 0.11
UGCAGG,1.747 ± 0.003,1.85 ± 0.12
UGCAGA,1.63 ± 0.031,1.8 ± 0.096
UGCAGU,1.66 ± 0.038,1.83 ± 0.11
AGCACA,1.58 ± 0.029,1.72 ± 0.12
AGCCAU,1.718 ± 0.0054,1.8 ± 0.11
AGCCAG,1.68 ± 0.077,1.79 ± 0.058
AGCCAC,1.7 ± 0.041,1.86 ± 0.087
CGCACA,1.41 ± 0.091,1.59 ± 0.11
CGCACC,1.7 ± 0.031,1.83 ± 0.12
CGCACG,1.75 ± 0.038,1.85 ± 0.08
CGCACU,1.48 ± 0.12,1.71 ± 0.058
UGCAUU,1.713 ± 0.0057,1.84 ± 0.056
UGCAUA,1.7 ± 0.027,1.84 ± 0.084
CGCAGC,1.75 ± 0.027,1.87 ± 0.074

Variant,normalized RNA/DNA level without ligand (log10) [1],normalized RNA/DNA level with ligand (log10) [2]
CGCAGG,1.61 ± 0.034,1.84 ± 0.03
CGCAGU,1.679 ± 0.005,1.82 ± 0.092
CGCAGA,1.45 ± 0.08,1.68 ± 0.078
UGCCCA,1.88 ± 0.032,1.96 ± 0.096
UGCCCC,1.857 ± 0.013,1.93 ± 0.092
UGCCCU,1.79 ± 0.021,1.89 ± 0.057
GGAUGC,1.7 ± 0.079,1.83 ± 0.067
UGAUCG,1.77 ± 0.053,1.84 ± 0.15
UGAUCA,1.76 ± 0.073,1.88 ± 0.11
UGAUCC,1.89 ± 0.055,1.98 ± 0.075
UGAUCU,1.72 ± 0.023,1.86 ± 0.11
AGAUCC,1.81 ± 0.016,1.89 ± 0.038
AGAUCA,1.59 ± 0.076,1.74 ± 0.081
AGAUCU,1.72 ± 0.045,1.85 ± 0.084
AGAUCG,1.72 ± 0.051,1.88 ± 0.061
GGCCAU,1.73 ± 0.03,1.84 ± 0.1
GGCCAA,1.638 ± 0.01,1.74 ± 0.1
GGCCAC,1.7289 ± 0.0006,1.88 ± 0.083
GGCCAG,1.74 ± 0.0068,1.85 ± 0.025
AGAUAC,1.64 ± 0.029,1.79 ± 0.12
AGAUAG,1.53 ± 0.11,1.71 ± 0.086
AGAUAU,1.61 ± 0.046,1.78 ± 0.14
CGAUGG,1.67 ± 0.07,1.81 ± 0.073
CGAUGU,1.75 ± 0.025,1.91 ± 0.11

Variant,normalized RNA/DNA level without ligand (log10) [1],normalized RNA/DNA level with ligand (log10) [2]
GGAUCA,1.63 ± 0.02,1.77 ± 0.13
GGAUCC,1.86 ± 0.058,1.93 ± 0.055
GGAUAC,1.67 ± 0.049,1.78 ± 0.16
AGCAGG,1.822 ± 0.018,1.85 ± 0.1
AGCAGU,1.689 ± 0.0032,1.84 ± 0.13
GGCACC,1.75 ± 0.06,1.82 ± 0.085
GGCACG,1.76 ± 0.026,1.88 ± 0.039
GGCACA,1.69 ± 0.024,1.8 ± 0.12
GGCACU,1.73 ± 0.12,1.885 ± 0.0081
AGAUUU,1.66 ± 0.052,1.81 ± 0.17
AGAUUG,1.58 ± 0.049,1.77 ± 0.081
AGAUUC,1.7 ± 0.021,1.85 ± 0.093
CGAGUU,1.72 ± 0.08,1.84 ± 0.094
AGCAUC,1.8 ± 0.021,1.88 ± 0.12
AGCAUU,1.66 ± 0.0074,1.84 ± 0.073
AGCAUA,1.52 ± 0.083,1.73 ± 0.074
CGAUUC,1.63 ± 0.022,1.81 ± 0.075
CGAUUU,1.43 ± 0.11,1.64 ± 0.13
CGAUUA,1.28 ± 0.11,1.43 ± 0.12
CGAUUG,1.7 ± 0.019,1.89 ± 0.03
